Measurements: the Immune Epitope Database (IEDB)

Legend:
HLA-A*03:01 [1] = test: IEDB peptide-MHC binding, purified MHC/competitive/radioactivity; filed as Kd, often an IC50 or EC50 that approximates it; ≥ and ≤ were set here for values at or beyond the usual limits of such assays; conditions: source organism: Homo sapiens
HLA-B*07:02 [2] = test: as above; conditions: source organism: Homo sapiens
HLA-A*01:01 = test: as above
HLA-A*03:01 [3] = test: IEDB peptide-MHC binding, purified MHC/competitive/radioactivity; ≥ and ≤ were set here for values at or beyond the usual limits of such assays; conditions: source organism: Homo sapiens
HLA-B*07:02 [4] = test: as above; conditions: source organism: Homo sapiens
HLA-A*02:01 = test: as above; conditions: source organism: Homo sapiens

Kd (HLA-A*03:01 [1]) [µM]	Kd (HLA-B*07:02 [2]) [µM]	Kd (HLA-A*01:01; source organism: Homo sapiens) [µM]	IC50 (HLA-A*03:01 [3]) [µM]	IC50 (HLA-B*07:02 [4]) [µM]	IC50 (HLA-A*02:01) [µM]	Sequence	Kd (HLA-A*01:01; source organism: Hepatitis B virus subtype adyw) [µM]
≥ 5	≥ 5	–	–	–	–	EADPTGHSY	–
–	–	–	–	–	–	FLPSDFFPSV	≥ 5
≥ 5	≥ 5	4.31	–	–	–	LLDVPTAAV	–
–	–	≥ 5	0.905	0.0046	–	RVMAPRALL	–
≥ 5	≥ 5	≥ 5	–	–	0.024	SLLPAIVEL	–
≥ 5	≥ 5	≥ 5	–	–	–	YLLPAIVHI	–
